Results on seven sequences are retold here after the supplement of paper PMC5998384.

For data set [1], the system named is HeLa Kyoto. In words: solubility in G1/S (NP-40 vs SDS abundance) (log2 ratio); higher = more soluble. The following applies: cell cycle stage: G1/S.
In data set [2] the test system is HeLa Kyoto. In words: melting temperature (median over replicates), in situ; higher = more thermally stable.
The subject of data set [3] is HeLa Kyoto. In words: solubility change mitosis vs G1/S (difference of NP-40 vs SDS log2 ratios) (log2 ratio difference); higher = more soluble in mitosis.
Data set [4] relates to HeLa Kyoto. In words: thermal stability score vs G1/S (z-score of summed log2 fold changes over temperatures); higher = more thermally stable than in G1/S.
The mark [5] stands for this setting: cell cycle stage: early G1 (4.5 h after nocodazole release).
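Throughout, for melting temperature (median over replicates), in situ: HeLa Kyoto cells synchronized by double thymidine or nocodazole block, proteins quantified by TMT10plex mass spectrometry, three independent biological replicates.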
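Throughout, for solubility change mitosis vs G1/S (difference of NP-40 vs SDS log2 ratios): synchronized HeLa Kyoto cells (double thymidine block for G1/S, nocodazole release for mitosis), protein amounts in NP-40 versus SDS lysates quantified by mass spectrometry, three biological replicates.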
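Throughout, for solubility in G1/S (NP-40 vs SDS abundance): HeLa Kyoto cells arrested at G1/S by double thymidine block, proteins quantified by TMT10plex mass spectrometry in mild NP-40 versus SDS extracts, three biological replicates.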
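Throughout, for thermal stability score vs G1/S (z-score of summed log2 fold changes over temperatures): synchronized HeLa Kyoto cells, proteins quantified by TMT10plex mass spectrometry, three biological replicates, mitosis taken 0.5 h after nocodazole release, G1/S directly after double thymidine block.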

In the case of “MRVAALISGGKDSCYNMMQCIAAGHQIVALANLRPAENQVGSDELDSYMYQTVGHHAIDLYAEAMALPLYRRTIRGRSLDTRQVYTKCEGDEVEDLYELLKLVKEKEEVEGISVGAILSDYQRIRVENVCKRLNLQPLAYLWQRNQEDLLREMISSNIQAMIIKVAALGLDPDKHLGKTLDQMEPYLIELSKKYGVHVCGEGGEYETFTLDCPLFKKKIIVDSSEVVIHSADAFAPVAYLRFLELHLEDKVSSVPDNYRTSNYIYNF [DPH6]”, the “solubility in G1/S (log2)” value in data set [1] turned out to be 0.152. Further, the melting temperature in data set [2] (cell cycle stage: G1/S) turned out to be 50.2 °C; in data set [2] (cell cycle stage: mitosis) it was 50.6 °C. Also, the “solubility change mitosis (log2)” value in data set [3] was -0.0821. In addition, the thermal stability score is -0.982 in data set [4] (setting [5]) and 0.029 in data set [4] (cell cycle stage: mitosis).

On to “MRVAGAAKLVVAVAVFLLTFYVISQVFEIKMDASLGNLFARSALDTAARSTKPPRYKCGISKACPEKHFAFKMASGAANVVGPKICLEDNVLMSGVKNNVGRGINVALANGKTGEVLDTKYFDMWGGDVAPFIEFLKAIQDGTIVLMGTYDDGATKLNDEARRLIADLGSTSITNLGFRDNWVFCGGKGIKTKSPFEQHIKNNKDTNKYEGWPEVVEMEGCIPQKQD [FAM3C]”, for which the “solubility in G1/S (log2)” value in data set [1] amounted to 0.634. The melting temperature in data set [2] (cell cycle stage: G1/S) was determined as 54.2 °C; in data set [2] (cell cycle stage: mitosis), 53.2 °C. Further, in data set [3], the “solubility change mitosis (log2)” value stood at 0.0546. The thermal stability score in data set [4] (setting [5]) was 0.362; in data set [4] (cell cycle stage: mitosis), 0.765.

Take “MRVRIGLTLLLCAVLLSLASASSDEEGSQDESLDSKTTLTSDESVKDHTTAGRVVAGQIFLDSEESELESSIQEEEDSLKSQEGESVTEDISFLESPNPENKDYEEPKKVRKPALTAIEGTAHGEPCHFPFLFLDKEYDECTSDGREDGRLWCATTYDYKADEKWGFCETEEEAAKRRQMQEAEMMYQTGMKILNGSNKKSQKREAYRYLQKAASMNHTKALERVSYALLFGDYLPQNIQAAREMFEKLTEEGSPKGQTALGFLYASGLGVNSSQAKALVYYTFGALGGNLIAHMVLGYRYWAGIGVLQSCESALTHYRLVANHVASDISLTGGSVVQRIRLPDEVENPGMNSGMLEEDLIQYYQFLAEKGDVQAQVGLGQLHLHGGRGVEQNHQRAFDYFNLAANAGNSHAMAFLGKMYSEGSDIVPQSNETALHYFKKAADMGNPVGQSGLGMAYLYGRGVQVNYDLALKYFQKAAEQGWVDGQLQLGSMYYNGIGVKRDYKQALKYFNLASQGGHILAFYNLAQMHASGTGVMRSCHTAVELFKNVCERGRWSERLMTAYNSYKDGDYNAAVIQYLLLAEQGYEVAQSNAAFILDQREASIVGENETYPRALLHWNRAASQGYTVARIKLGDYHFYGFGTDVDYETAFIHYRLASEQQHSAQAMFNLGYMHEKGLGIKQDIHLAKRFYDMAAEASPDAQVPVFLALCKLGVVYFLQYIRETNIRDMFTQLDMDQLLGPEWDLYLMTIIALLLGTVIAYRQRQHQDMPAPRPPGPRPAPPQQEGPPEQQPPQ [SEL1L]”: the “solubility in G1/S (log2)” value in data set [1] worked out at 0.228. Moreover, the melting temperature was determined as 53.9 °C in data set [2] (cell cycle stage: G1/S) and 52 °C in data set [2] (cell cycle stage: mitosis). In data set [3], the “solubility change mitosis (log2)” value is -0.0462. In addition, the thermal stability score in data set [4] (setting [5]) is -0.563; in data set [4] (cell cycle stage: mitosis) it was -0.64.

As to “MRWGHHLPRASWGSGFRRALQRPDDRIPFLIHWSWPLQGERPFGPPRAFIRHHGSSVDSAPPPGRHGRLFPSASATEAIQRHRRNLAEWFSRLPREERQFGPTFALDTVHVDPVIRESTPDELLRPPAELALEHQPPQAGLPPLALSQLFNPDACGRRVQTVVLYGTVGTGKSTLVRKMVLDWCYGRLPAFELLIPFSCEDLSSLGPAPASLCQLVAQRYTPLKEVLPLMAAAGSHLLFVLHGLEHLNLDFRLAGTGLCSDPEEPQEPAAIIVNLLRKYMLPQASILVTTRPSAIGRIPSKYVGRYGEICGFSDTNLQKLYFQLRLNQPYCGYAVGGSGVSATPAQRDHLVQMLSRNLEGHHQIAAACFLPSYCWLVCATLHFLHAPTPAGQTLTSIYTSFLRLNFSGETLDSTDPSNLSLMAYAARTMGKLAYEGVSSRKTYFSEEDVCGCLEAGIRTEEEFQLLHIFRRDALRFFLAPCVEPGRAGTFVFTVPAMQEYLAALYIVLGLRKTTLQKVGKEVAELVGRVGEDVSLVLGIMAKLLPLRALPLLFNLIKVVPRVFGRMVGKSREAVAQAMVLEMFREEDYYNDDVLDQMGASILGVEGPRRHPDEPPEDEVFELFPMFMGGLLSAHNRAVLAQLGCPIKNLDALENAQAIKKKLGKLGRQVLPPSELLDHLFFHYEFQNQRFSAEVLSSLRQLNLAGVRMTPVKCTVVAAVLGSGRHALDEVNLASCQLDPAGLRTLLPVFLRARKLGLQLNSLGPEACKDLRDLLLHDQCQITTLRLSNNPLTAAGVAVLMEGLAGNTSVTHLSLLHTGLGDEGLELLAAQLDRNRQLQELNVAYNGAGDTAALALARAAREHPSLELLHLYFNELSSEGRQVLRDLGGAAEGGARVVVSLTEGTAVSEYWSVILSEVQRNLNSWDRARVQRHLELLLRDLEDSRGATLNPWRKAQLLRVEGEVRALLEQLGSSGS [NLRX1]”, the “solubility in G1/S (log2)” value in data set [1] is -0.273. For the same sequence, the melting temperature in data set [2] (cell cycle stage: G1/S) came out at 54.3 °C; in data set [2] (cell cycle stage: mitosis), 54.7 °C. Besides, the “solubility change mitosis (log2)” value in data set [3] turned out to be 0.0927. The thermal stability score in data set [4] (setting [5]) is -0.577; in data set [4] (cell cycle stage: mitosis), -2.13.

As for “MRWGLRPRGPGAAALATARSLWGTPRLPCSPGWQGATKRLLVRSVSGASNHQPNSNSGRYRDTVLLPQTSFPMKLLGRQQPDTELEIQQKCGFSELYSWQRERKVKTEFCLHDGPPYANGDPHVGHALNKILKDIANRFHMMNGSKIHFVPGWDCHGLPIEIKVLSELGREAQNLSAMEIRKKARSFAKAAIEKQKSAFIRWGIMADWNNCYYTFDGKYEAKQLRTFYQMYDKGLVYRSYKPVFWSPSSRTALAEAELEYNPEHVSRSIYVKFPLLKPSPKLASLIDGSSPVSILVWTTQPWTIPANEAVCYMPESKYAVVKCSKSGDLYVLAADKVASVASTLETTFETISTLSGVDLENGTCSHPLIPDKASPLLPANHVTMAKGTGLVHTAPAHGMEDYGVASQHNLPMDCLVDEDGVFTDVAGPELQNKAVLEEGTDVVIKMLQTAKNLLKEEKLVHSYPYDWRTKKPVVIRASKQWFINITDIKTAAKELLKKVKFIPGSALNGMVEMMDRRPYWCISRQRVWGVPIPVFHHKTKDEYLINSQTTEHIVKLVEQHGSDIWWTLPPEQLLPKEVLSEVGGPDALEYVPGQDILDIWFDSGTSWSYVLPGPDQRADLYLEGKDQLGGWFQSSLLTSVAARKRAPYKTVIVHGFTLGEKGEKMSKSLGNVIHPDVVVNGGQDQSKEPPYGADVLRWWVADSNVFTEVAIGPSVLNAARDDISKLRNTLRFLLGNVADFNPETDSIPVNDMYVIDQYMLHLLQDLANKITELYKQYDFGKVVRLLRTFYTRELSNFYFSIIKDRLYCEKENDPKRRSCQTALVEILDVIVRSFAPILPHLAEEVFQHIPYIKEPKSVFRTGWISTSSIWKKPGLEEAVESACAMRDSFLGSIPGKNAAEYKVITVIEPGLLFEIIEMLQSEETSSTSQLNELMMASESTLLAQEPREMTADVIELKGKFLINLEGGDIREESSYKVIVMPTTKEKCPRCWKYTAESSDTLCPRCAEVVSGK [IARS2]”, in data set [1], the “solubility in G1/S (log2)” value was -0.0329. Further, the melting temperature in data set [2] (cell cycle stage: G1/S) and in data set [2] (cell cycle stage: mitosis) was 54.9 °C in each case. For the same sequence, the “solubility change mitosis (log2)” value in data set [3] is -0.0958. Besides, the results for the thermal stability score in data set [4] (setting [5]) and in data set [4] (cell cycle stage: mitosis) were -0.383 and -1.42, respectively.

For “MSAAIAALAASYGSGSGSESDSDSESSRCPLPAADSLMHLTKSPSSKPSLAVAVDSAPEVAVKEDLETGVHLDPAVKEVQYNPTYETMFAPEFGPENPFRTQQMAAPRNMLSGYAEPAHINDFMFEQQRRTFATYGYALDPSLDNHQVSAKYIGSVEEAEKNQGLTVFETGQKKTEKRKKFKENDASNIDGFLGPWAKYVDEKDVAKPSEEEQKELDEITAKRQKKGKQEEEKPGEEKTILHVKEMYDYQGRSYLHIPQDVGVNLRSTMPPEKCYLPKKQIHVWSGHTKGVSAVRLFPLSGHLLLSCSMDCKIKLWEVYGERRCLRTFIGHSKAVRDICFNTAGTQFLSAAYDRYLKLWDTETGQCISRFTNRKVPYCVKFNPDEDKQNLFVAGMSDKKIVQWDIRSGEIVQEYDRHLGAVNTIVFVDENRRFVSTSDDKSLRVWEWDIPVDFKYIAEPSMHSMPAVTLSPNGKWLACQSMDNQILIFGAQNRFRLNKKKIFKGHMVAGYACQVDFSPDMSYVISGDGNGKLNIWDWKTTKLYSRFKAHDKVCIGAVWHPHETSKVITCGWDGLIKLWD [CDC40]”, the “solubility in G1/S (log2)” value in data set [1] was -0.918. Further, the melting temperature in data set [2] (cell cycle stage: G1/S) was 53.1 °C; in data set [2] (cell cycle stage: mitosis), 51.9 °C. The “solubility change mitosis (log2)” value in data set [3] came out at 0.525. Also, the thermal stability score in data set [4] (setting [5]) was -1; in data set [4] (cell cycle stage: mitosis), -0.655.

With “MSAEVETSEGVDESEKKNSGALEKENQMRMADLSELLKEGTKEAHDRAENTQFVKDFLKGNIKKELFKLATTALYFTYSALEEEMERNKDHPAFAPLYFPMELHRKEALTKDMEYFFGENWEEQVQCPKAAQKYVERIHYIGQNEPELLVAHAYTRYMGDLSGGQVLKKVAQRALKLPSTGEGTQFYLFENVDNAQQFKQLYRARMNALDLNMKTKERIVEEANKAFEYNMQIFNELDQAGSTLARETLEDGFPVHDGKGDMRKCPFYAAEQDKGALEGSSCPFRTAMAVLRKPSLQFILAAGVALAAGLLAWYYM [HMOX2]”, the “solubility in G1/S (log2)” value in data set [1] worked out at 0.427. Also, the melting temperature in data set [2] (cell cycle stage: G1/S) was found to be 49.4 °C; in data set [2] (cell cycle stage: mitosis), 51 °C. For the same sequence, the “solubility change mitosis (log2)” value in data set [3] stood at 0.0224. The values for the thermal stability score in data set [4] (setting [5]) and in data set [4] (cell cycle stage: mitosis) were 0.884 and 1.97, respectively.
